Source: article PMC11746992 (Nature Communications, 2025)

B1: C7H13 (chimeric antibody: variable regions of 7H13 in a human antibody framework) (antibody, V domains shown)
VH: QVQLKESGPGLVAPSQSLSITCTVSGFSLSRYSVHWVRQPPGKGLEWLGMIWNIGSTDYNSALKSRLSISKDNSQSQVFLKLNSLQTDDAAIYYCARNSGFDLFDFWGQGTTLTVS
VL: DIVMTQSHKFMSTSVGDRVSITCKASQDVTSAVAWYQQKPGQSPKLLISSASYRYTGVPDRFSGSGSGTDFTFTISSVQAEDLAVYYCQQHYSTPPTFGAGTKLELK
B2: m41# (engineered mouse Fc version of 41#) (antibody, V domains shown)
VH: EVQLVESGGGPVQPGGSLKLSCAASGFTFSNYEMYWVRQAPGKGLEWVSYISTSPAITYYADSVRGRFTISRDNAKSSLYLHMNSLRAEDTAVYYCATISHQQFSSGWNAWFDPWGQGTLVTVSG
VL: NFMLTQPHSVSESPGKTVTISCTGSSGSIASNYVQWYRQRPGSAPTTVIYENYQRPSGVPARFSGSIDRSSNSASLTISGLQTDDEADYYCQSYDNNNLWVFGGGTKLTVL

Biological target: VP4 coated on microplates (indirect blocking ELISA) (Rotavirus A, simian strain SA11 …, UniProt A2T3T2)
Test: ELISA

Row | Binder | binding result
1 | B1 | binds
2 | B2 | binds
